Laboratory results reported in article PMC5333157 (2017).

B1: ERK4 (wild-type), GAL4 activation domain fusion [not stated] / DUSP2 (wild-type), GAL4 DNA-binding domain fusion [human] (parent complex)
chain 1: MAEKGDCIASVYGYDLGGRFVDFQPLGFGVNGLVLSAVDSRACRKVAVKKIALSDARSMKHALREIKIIRRLDHDNIVKVYEVLGPKGTDLQGELFKFSVAYIVQEYMETDLARLLEQGTLAEEHAKLFMYQLLRGLKYIHSANVLHRDLKPANIFISTEDLVLKIGDFGLARIVDQHYSHKGYLSEGLVTKWYRSPRLLLSPNNYTKAIDMWAAGCILAEMLTGRMLFAGAHELEQMQLILETIPVIREEDKDELLRVMPSFVSSTWEVKRPLRKLLPEVNSEAIDFLEKILTFNPMDRLTAEMGLQHPYMSPYSCPEDEPTSQHPFRIEDEIDDIVLMAANQSQLSNWDTCSSRYPVSLSSDLEWRPDRCQDASEVQRDPRAGSAPLAEDVQVDPRKDSHSSSERFLEQSHSSMERAFEADYGRSCDYKVGSPSYLDKLLWRDNKPHHYSEPKLILDLSHWKQAAGAPPTATGLADTGAREDEPASLFLEIAQWVKSTQGGPEHASPPADDPERRLSASPPGRPAPVDGGASPQFDLDVFISRALKLCTKPEDLPDNKLGDLNGACIPEHPGDLVQTEAFSKERW
chain 2: MGLEAARELECAALGTLLRDPREAERTLLLDCRPFLAFCRRHVRAARPVPWNALLRRRARGPPAAVLACLLPDRALRTRLVRGELARAVVLDEGSASVAELRPDSPAHVLLAALLHETRAGPTAVYFLRGGFDGFQGCCPDLCSEAPAPALPPTGDKTSRSDSRAPVYDQGGPVEILPYLFLGSCSHSSDLQGLQACGITAVLNVSASCPNHFEGLFRYKSIPVEDNQMVEISAWFQEAIGFIDWVKNSGGRVLVHCQAGISRSATICLAYLMQSRRVRLDEAFDFVKQRRGVISPNFSFMGQLLQFETQVLCH

Variants of: B1
Assay: yeast two-hybrid, β-galactosidase reporter assay; triplicate; read off a plot

| Variant | response |
| --- | --- |
| chain 1 D320N | ~16 |
